T1: human DLL1 his tag fusion protein (Sino Biological, Cat. No. 11635-H08H) (human, UniProt O00548 18-540)
T1 construct: Bought protein; also called hDLL1-his; hDLL1 protein; not shown: his tag
T1 sequence (looked up): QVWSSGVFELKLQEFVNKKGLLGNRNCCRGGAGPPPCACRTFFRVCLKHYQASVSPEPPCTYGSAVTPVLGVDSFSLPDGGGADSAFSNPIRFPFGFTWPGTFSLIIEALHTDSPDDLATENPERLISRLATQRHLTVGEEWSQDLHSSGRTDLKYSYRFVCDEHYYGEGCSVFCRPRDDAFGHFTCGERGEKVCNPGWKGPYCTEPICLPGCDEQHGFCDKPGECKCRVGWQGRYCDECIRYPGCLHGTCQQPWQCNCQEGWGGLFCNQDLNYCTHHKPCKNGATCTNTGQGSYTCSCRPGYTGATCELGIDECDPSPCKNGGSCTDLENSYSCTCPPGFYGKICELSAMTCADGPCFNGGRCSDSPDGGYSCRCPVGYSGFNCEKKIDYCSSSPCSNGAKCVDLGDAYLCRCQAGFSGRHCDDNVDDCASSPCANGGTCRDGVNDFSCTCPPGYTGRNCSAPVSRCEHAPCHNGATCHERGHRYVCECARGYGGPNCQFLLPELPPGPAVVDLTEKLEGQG

T2: ECD of human DLL3 protein fused with his tag (Acro Bio, Cat. No. DL3-H52H4) (human, UniProt Q9NYJ7 27-492)
T2 construct: range 27-492; Bought protein; also called hDLL3-his; human DLL3-his protein; not shown: his tag
T2 sequence (looked up): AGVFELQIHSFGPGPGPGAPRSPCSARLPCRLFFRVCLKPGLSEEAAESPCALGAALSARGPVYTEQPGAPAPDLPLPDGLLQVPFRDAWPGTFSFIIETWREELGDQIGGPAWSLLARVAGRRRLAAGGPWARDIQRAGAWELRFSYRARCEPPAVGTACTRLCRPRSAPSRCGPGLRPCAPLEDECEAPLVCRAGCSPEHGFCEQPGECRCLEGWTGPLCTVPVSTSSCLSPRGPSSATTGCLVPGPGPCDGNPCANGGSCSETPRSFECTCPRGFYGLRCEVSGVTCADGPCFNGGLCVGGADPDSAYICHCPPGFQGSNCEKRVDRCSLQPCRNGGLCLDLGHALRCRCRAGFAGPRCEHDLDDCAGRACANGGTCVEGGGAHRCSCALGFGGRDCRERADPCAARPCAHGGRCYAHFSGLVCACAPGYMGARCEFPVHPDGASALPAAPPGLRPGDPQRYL

T3: mouse DLL3 his tag protein (KACTUS, Cat. No. DLL-MM103) (mouse, UniProt O88516 33-490, limits assumed)
T3 construct: Bought protein; also called mDLL3-his; mouse DLL3 protein; not shown: his tag
T3 sequence (looked up): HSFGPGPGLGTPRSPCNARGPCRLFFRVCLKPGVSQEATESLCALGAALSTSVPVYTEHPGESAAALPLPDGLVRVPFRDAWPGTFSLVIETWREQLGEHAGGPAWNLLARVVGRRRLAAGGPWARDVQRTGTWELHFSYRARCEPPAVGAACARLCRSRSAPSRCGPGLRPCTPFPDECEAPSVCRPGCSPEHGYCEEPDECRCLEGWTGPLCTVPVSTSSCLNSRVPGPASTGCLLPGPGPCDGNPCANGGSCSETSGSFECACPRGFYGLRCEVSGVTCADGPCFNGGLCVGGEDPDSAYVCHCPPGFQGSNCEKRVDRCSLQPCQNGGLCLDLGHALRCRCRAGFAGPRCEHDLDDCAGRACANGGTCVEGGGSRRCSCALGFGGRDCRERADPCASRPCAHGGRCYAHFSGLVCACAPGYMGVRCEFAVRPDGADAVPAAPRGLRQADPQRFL

T4: human full length DLL1 expressed on CHO-K1 cells (human, UniProt O00548 18-723)
T4 construct: whole, on cells; also called CHO-K1-hDLL1
T4 sequence (looked up): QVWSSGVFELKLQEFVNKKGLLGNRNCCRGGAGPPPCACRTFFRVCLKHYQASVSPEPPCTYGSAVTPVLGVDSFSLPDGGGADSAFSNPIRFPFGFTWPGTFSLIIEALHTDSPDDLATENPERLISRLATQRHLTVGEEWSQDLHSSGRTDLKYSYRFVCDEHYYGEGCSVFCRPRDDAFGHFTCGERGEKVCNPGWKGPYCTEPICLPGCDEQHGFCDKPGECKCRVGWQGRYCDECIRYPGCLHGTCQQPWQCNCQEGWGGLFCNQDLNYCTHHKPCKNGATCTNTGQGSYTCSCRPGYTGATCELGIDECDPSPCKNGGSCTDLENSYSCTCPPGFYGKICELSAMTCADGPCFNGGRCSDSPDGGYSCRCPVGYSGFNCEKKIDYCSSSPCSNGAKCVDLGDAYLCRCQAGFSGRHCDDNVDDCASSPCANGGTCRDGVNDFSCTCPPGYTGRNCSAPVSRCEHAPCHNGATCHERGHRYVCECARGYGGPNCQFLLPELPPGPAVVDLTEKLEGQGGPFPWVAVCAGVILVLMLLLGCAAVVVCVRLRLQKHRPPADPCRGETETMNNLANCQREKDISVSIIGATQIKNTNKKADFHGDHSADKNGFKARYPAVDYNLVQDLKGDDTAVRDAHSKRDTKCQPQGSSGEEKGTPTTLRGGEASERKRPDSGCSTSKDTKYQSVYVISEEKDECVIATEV

T5: ECD of human DLL3 over-expressed on HEK293 cells (human, UniProt Q9NYJ7 27-492)
T5 construct: extracellular domain; also called HEK293-hDLL3; human DLL3 expressed on HEK293 cells
T5 sequence (looked up): T2 sequence (looked up)

T6: human DLL3 endogenously expressed on SCLC tumor cell lines SHP77 and NCI-H82 (human, UniProt Q9NYJ7 27-618)
T6 construct: whole, on cells; also called human DLL3 expressed on tumor cells
T6 sequence (looked up): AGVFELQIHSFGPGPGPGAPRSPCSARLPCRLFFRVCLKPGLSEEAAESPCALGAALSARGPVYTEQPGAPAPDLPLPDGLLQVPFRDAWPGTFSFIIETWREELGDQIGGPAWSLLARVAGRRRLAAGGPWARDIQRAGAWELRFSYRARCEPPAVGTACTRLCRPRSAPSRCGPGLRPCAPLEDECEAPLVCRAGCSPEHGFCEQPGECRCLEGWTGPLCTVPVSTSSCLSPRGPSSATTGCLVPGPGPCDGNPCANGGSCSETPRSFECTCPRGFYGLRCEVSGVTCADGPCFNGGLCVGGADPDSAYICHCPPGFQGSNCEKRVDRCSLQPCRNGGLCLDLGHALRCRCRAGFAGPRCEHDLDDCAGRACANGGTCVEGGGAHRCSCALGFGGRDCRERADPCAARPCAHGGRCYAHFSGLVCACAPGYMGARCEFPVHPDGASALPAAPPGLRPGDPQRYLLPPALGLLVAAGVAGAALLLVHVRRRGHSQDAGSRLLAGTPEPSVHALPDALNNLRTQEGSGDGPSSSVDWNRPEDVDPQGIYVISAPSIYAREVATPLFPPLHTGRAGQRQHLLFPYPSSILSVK

B1: 36B7F3-hIgG1 chimeric antibody (antibody, V domains shown)
VH: QVQLQQSGPELVKPGASVKISCRASGYTFTDHHLNWVKQRPGQGLEWIGWIFPGSGSDYYNERFKDKATLTVDKSSSTAYMLLSSLTSEDSAVYFCERWDYWGQGTTLTVSS
VL: QIVLTQSPTIMSASPGEKVTMTCSASSSISYMHWYQQKPGTSPKRWIYDTSTLASGVPARFSGGGSGTSYSLTISSMEAEDAATYYCHQRSSYPLTFGAGTKLELKR
B2: 9E8D8-hIgG1 chimeric antibody (antibody, V domains shown)
VH: QVQLQQSGAELVRPGASVKLSCKALGYTFTDSEIHWVKQTPVHGLEWIGAIHPRNGGTAYNQKFRGKATLSADRSSNTAYMELSSLTSEDSAVYYCSRGYFLDYWGQGTSVTVSS
VL: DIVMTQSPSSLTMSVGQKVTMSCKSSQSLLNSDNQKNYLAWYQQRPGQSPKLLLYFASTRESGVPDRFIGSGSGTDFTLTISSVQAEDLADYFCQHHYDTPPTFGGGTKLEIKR
B3: 310P3C5-hIgG1 chimeric antibody (antibody, V domains shown)
VH: EVQLQQSGPELVKPGASVKISCKASGYTFTDFYMNWVKQTHGKSLEWIGDANPNNGGTTHNPRFKGQATLTVDKSSNTAYMELRSLTSEDSAVYYCARGGLPGDFDYWGQGTTLTVSS
VL: DIQMTQSSSSFSVSLGDRVTITCKASEDIYNRLAWYQQKPGNAPRLLISGVTSLETGVPSRFSGSGSGKDYTLSITSLQTEDVATYYCQQYWSFPWTFGGGTKLEIKR
B4: 362H3D3-hIgG1 chimeric antibody (antibody, V domains shown)
VH: EVQLQQSGPELLKPGASVKISCKASGYTFTDYTMHWVKQSHGRSLEWIGGIHPNYGGTSYNEKFKDKATLTVDKSSSTAYMEFRSLTSEDSAVYYCARWGYYGGSYWYFDVWGTGTTVTVSS
VL: DIQMTQSPASLSVSVGETVTITCRASENIYSNLAWYQQKQGKSPQLLVYAATNLADGVPSRFSGSGSGTQYSLKINSLQSEDFGSYYCQHFWGTPYTFGGGTKLEIKR
B5: 129H2B9-hIgG1 chimeric antibody (antibody, V domains shown)
VH: EVNLEESGGGLVQPGGSMKLSCVVSGFTFSNYWMSWVRQSPEKGLEWVAEIRLKSDNYATHYAESVKGKFTISRDDSKSRLYLQMNSLRPEDTGIYYCTSNRFAYWGQGTLVTVSA
VL: NIVMTQSPKSVSMSVGERVTLSCKASENVGTYVYWYQQKPEQSPKMMIYGASNRYTGVPDRFTGSGSATDFTLTIRSVQAEDLADYHCGQSYSYPFTFGSGTKLEIKR
B6: 148C3A7-hIgG1 chimeric antibody (antibody, V domains shown)
VH: EVQLQQSGPELIKPGTSVKMSCKASGYTFTTYLMHWVKQKPGQGLEWIGYINPYNDVTEYHEKFKDKATLTSDKSSSTAYMELSSLTSEDSAVYYCARLGGYGPGWYLDVWGAGTTVTVSS
VL: DIQMTQSPASLSASVGETVTITCRASGSIHNYLAWYLHKQGKSPQLLVYNAKTLADGVPSRFSGSGSGTQYSLKINSLQPEDFGSYYCHHFWSTPWTFGGGTKLEIKR

Target: T1, human DLL1 his tag fusion protein (Sino …)
Assay: ELISA, hDLL1-his coated at 1 ug/mL

| binding result | Binder |
| --- | --- |
| no binding (tested: up to 100 nM) | B1 |
| no binding (tested: up to 100 nM) | B2 |
| no binding (tested: up to 100 nM) | B3 |
| binds | B4 |
| no binding (tested: up to 100 nM) | B5 |
| no binding (tested: up to 100 nM) | B6 |

Target: T2, ECD of human DLL3 protein fused with …
Assay: ELISA, hDLL3-his coated at 1 ug/mL

| binding result | Binder |
| --- | --- |
| binds | B1 |
| binds | B2 |

Target: T7, human DLL4 his tag fusion protein (Sino Biological, Cat. No. 10171-H08H) (human, UniProt Q9NR61 27-524)
T7 construct: Bought protein; also called hDLL4-his; hDLL4 protein; not shown: his tag
Assay: ELISA, hDLL4-his coated at 1 ug/mL

T7 sequence (Q9NR61 27-524 limits assumed): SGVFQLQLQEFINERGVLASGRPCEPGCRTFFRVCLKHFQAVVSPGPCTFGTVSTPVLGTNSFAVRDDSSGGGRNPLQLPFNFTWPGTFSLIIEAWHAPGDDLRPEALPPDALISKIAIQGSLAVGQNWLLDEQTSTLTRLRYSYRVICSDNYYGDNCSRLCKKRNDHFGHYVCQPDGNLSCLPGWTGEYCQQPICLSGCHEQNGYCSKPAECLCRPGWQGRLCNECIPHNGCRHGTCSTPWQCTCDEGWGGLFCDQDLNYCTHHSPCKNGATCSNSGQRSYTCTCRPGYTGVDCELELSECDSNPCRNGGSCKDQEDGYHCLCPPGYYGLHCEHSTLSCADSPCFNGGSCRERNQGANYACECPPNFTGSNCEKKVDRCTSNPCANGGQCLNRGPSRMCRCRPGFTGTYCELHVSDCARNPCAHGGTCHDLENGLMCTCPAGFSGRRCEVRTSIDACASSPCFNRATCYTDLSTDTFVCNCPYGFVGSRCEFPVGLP

| binding result | Binder |
| --- | --- |
| no binding (tested: up to 100 nM) | B1 |
| no binding (tested: up to 100 nM) | B2 |
| no binding (tested: up to 100 nM) | B3 |
| binds | B4 |
| no binding (tested: up to 100 nM) | B5 |
| no binding (tested: up to 100 nM) | B6 |

Target: T3, mouse DLL3 his tag protein (KACTUS, …)
Assay: ELISA, mDLL3-his coated at 1 ug/mL

| binding result | Binder |
| --- | --- |
| binds | B1 |
| binds | B2 |
| binds | B3 |
| binds | B4 |
| binds | B5 |
| binds | B6 |

Target: T4, human full length DLL1 expressed on …
Assay: flow cytometry on CHO-K1-hDLL1 cells

| Binder | binding result |
| --- | --- |
| B1 | no binding (tested: highest dose level 100 nM) |
| B2 | no binding (tested: highest dose level 100 nM) |
| B3 | no binding (tested: highest dose level 100 nM) |
| B4 | binds |
| B5 | no binding (tested: highest dose level 100 nM) |
| B6 | no binding (tested: highest dose level 100 nM) |

Target: T5, ECD of human DLL3 over-expressed on …
Assay: flow cytometry on HEK293-hDLL3 cells

| binding result | Binder |
| --- | --- |
| binds | B1 |
| binds | B2 |
| binds | B3 |
| binds | B4 |
| binds | B5 |
| binds | B6 |

Target: T6, human DLL3 endogenously expressed on …
Assay: flow cytometry on SHP77 and NCI-H82 cells

| binding result | Binder |
| --- | --- |
| binds | B1 |
| binds | B2 |
| binds | B3 |
| binds | B4 |
| binds | B6 |

Target: T2, ECD of human DLL3 protein fused with …
Assay: SPR, Biacore 8K, antibody captured on Protein A chip, single dose of human DLL3-his

| binding result | Binder |
| --- | --- |
| binds | B3 |
| binds | B4 |
| binds | B5 |
| binds | B6 |

From patent EP4803151A2 (Lepu Biopharma Co., Ltd., dated 2026)
